Drawing on US20260167679A1, “FUSION PROTEIN TARGETING MITOCHONDRIA, METHOD OF MAKING AND USE THEREOF” (UNIVERSITY OF ROCHESTER, priority 2020, published 2026), this text covers AMPK phosphorylation for one molecule.

The test system of this experiment is AMPK. The experiment is described as follows: Immunoblot of phosphorylated AMPK. Type of experiment: in vivo, Caenorhabditis elegans. As to conditions: animals removed from food, mtON activation. As to the method: Synchronized young adult animals were exposed to 1 Hz light (Quantum LED, 0.02 mW/mm2) for 4 h, and immediately harvested with ice-cold M9 media and centrifuged at 1,000×g for 1 min. Animals were ground by plastic pestle disruption in lysis buffer (20 mM Tris-HCl, 100 mM NaCl, 1 mM EDTA, 1 mM DTT, 10% glycerol, 0.1% SDS, pH 7.6, 1×Halt™ protease inhibitor cocktail, Thermo78429) and diluted 1:1 in sample loading buffer (100 mM Tris-HCl, 10% v/v glycerol, 10% SDS, 0.2% w/v bromophenol blue, 2% v/v b-mercaptoethanol). These samples were heated at 95° C. for 5 min. Isolated mitochondrial samples were prepared as described above and diluted 1:1 in sample loading buffer with 1% SDS. […] samples were loaded to 7.5% polyacrylamide gels and separated by SDS-PAGE. Proteins were transferred to nitrocellulose membranes and blocked in 5% non-fat milk/TBST (50 mM Tris, 150 mM NaCl, 0.05% Tween 20, pH 8.0) for 1 h at room temperature. Membranes were incubated at 4° C. in primary antibodies diluted 1:1,000 in 5% bovine serum albumin:anti-GFP (ClonTech Living Colours #ab632375), anti-ATP5a (Abcam, #ab14748), 1:60 anti-HSP60 (Department of Biology, Iowa City, IA 52242; Developmental Studies Hybridoma Bank, University of Iowa Department of Biology, Iowa City, IA 52242), […], anti-Actin (Abcam #ab14128), and 1:10,000 antiphospho-AMPKa Rabbit (Cell Signaling, #2535). […]

B1: mtON: fusion of the 187 N-terminal amino acids of mouse IMMT1 to the light-activated proton pump (Mac) from Leptosphaeria maculans (protein)
chain: MLRACQLSGVTVAAQSCLCGKFVLRPLRPCRRYSTSSSSGLTAGKIAGAGLLFVGGGIGGTILYAKWDSHFRESVEKTIPYSDKLFGMVLGSAPYTVPLPKKPVQSGPLKISSVSEVMKDSKLPVAQSQKTKGDTPASAASTGAAQIISAAGDTLSVPAPAVQHEDTIKTECPNTNEGKSTSETTEEPAGLIVDQFEEVLMKTSQLFPLPTATQSAQPTHVAPVPTVLPDTPIYETVGDSGSKTLWVVFVLMLIASAAFTALSWKIPVNRRLYHVITTIITLTAALSYFAMATGHGVALNKIVIRTQHDHVPDTYETVYRQVYYARYIDWAITTPLLLLDLGLLAGMSGAHIFMAIVADLIMVLTGLFAAFGSEGTPQKWGWYTIACIAYIFVVWHLVLNGGANARVKGEKLRSFFVAIGAYTLILWTAYPIVWGLADGARKIGVDGEIIAYAVLDVLAKGVFGAWLLVTHANLRESDVELNGFWANGLNREGAIRIGEDDGAR
modifications: Synthetic Complete mtON fusion protein sequence
Turning to B1, the AMPK phosphorylation entry was “prevented this phosphorylation”.
